Test results published in paper PMC4068289.

Biological target: human amyloid β 1–40 carrying the A2V mutation (Aβ_(1–40A2V)) (human)
Test: far-Western, overlay or dot blot

fold increase in the proportion of A11-stained oligomers against WT: 3 fold
Substance: human amyloid β 1–40 carrying the A2V mutation (Aβ_(1–40A2V)) (peptide)
